Experimental data reported in patent publication US20100129369A1 (Eli Lilly, published 2010).
Positions count from the first letter of the chain named. In names and notes the source's numbering stands.

B1: D11-C27G3 (antibody, human IgG2, kappa, V domains shown)
VH: QVQLVQSGAEVKKPGSSVKVSCKASGYTFTSRYIHWVRQAPGQGLEWMGWIYPVTGDTYYREPFKGRVTITADKSTSTAYMELSSLRSEDTAVYYCARGYGAFYYWGQGTLVTVSS
VL: EIVLTQSPGTLSLSPGERATLSCSVSSSISSTNLHWYQQKPGQAPRLLIYGTSRLRSGIPDRFSGSGSGTDFTLTISRLEPEDFAVYYCQQWSSYPYSFGQGTKLEIKR
B2: D11-S17Y (antibody, human IgG2, kappa, V domains shown)
VH: B1 VH with R61N, P63K
VL: B1 VL with R54Y, R56A
B3: D11-C27G3 (antibody, human IgG2, kappa, V domains shown)
VH: B1 VH
VL: B1 VL
notes: Human engineered IgG2, kappa; also called D11-27G3
B4: D11-8B8 (antibody, human IgG2, kappa, V domains shown)
VH: B1 VH with R61I, P63K, Y104F
VL: B1 VL with R54Y, R56A
notes: Human engineered IgG2, kappa; expressed in HEK293 EBNA cells; also called Mab D11-8B8

Tests used:
human c-Met [1] = target: T1, human c-Met (human, UniProt P08581 25-1390); assay: cell-based or functional assay
human c-Met [2] = target: T1, human c-Met; assay: cell-based or functional assay; remark: listed apart in the source
Human c-Met-Flis-Fc ECD [3] = target: T2, Human c-Met-Flis-Fc ECD (human); assay: ELISA, coated ECD-Fc, antibody 462.963 ng/mL
T2 construct: also called human c-Met extracellular domain (ECD)-Fc-Flis fusion; Human cMet-ECD-Fc-Flis
Experimental: (§1) Wells of 96-well EIA/RIA high binding plates (Costar, #2592) are coated with 100 μL of 1 μg/mL human c-Met extracellular domain (ECD)-Fc-Flis fusion (SEQ ID NO:72), RON-ECD-Fc (R&D Systems, #1947-MS), or PlexinA2-ECD-Fc (Abnova, Taipei, Taiwan #H00005362-P01) in coating buffer (BioFX Labs, # COAT-1000-01) overnight at 4° C. […] After the plates are washed, 100 μL/well of substrate solution (BioFx, #TMBW-1000-01) are added and the plates are incubated for 10 min. at room temperature. 100 μL/well of stop solution (BioFx, # LSTP-1000-01) are added to stop the reaction. The colorimetric signals are developed and read at 450 nm using a SpectraMax 190 plate reader (Molecular Devices, Sunnyvale, Calif.). c-Met antibody binding to c-Met, RON and PlexinA2 ECDs is proportional to color signal production.

Human c-Met-Flis-Fc ECD [4] = target: T2, Human c-Met-Flis-Fc ECD; assay: ELISA, coated ECD-Fc, antibody 2777.778 ng/mL
Experimental: as §1

Human c-Met-Flis-Fc ECD [5] = target: T2, Human c-Met-Flis-Fc ECD; assay: ELISA, coated ECD-Fc, antibody 0.357 ng/mL
Experimental: as §1

Human c-Met-Flis-Fc ECD [6] = target: T2, Human c-Met-Flis-Fc ECD; assay: ELISA, coated ECD-Fc, antibody 12.860 ng/mL
Experimental: as §1

Human c-Met-Flis-Fc ECD [7] = target: T2, Human c-Met-Flis-Fc ECD; assay: ELISA, coated ECD-Fc, antibody 0.002 ng/mL
Experimental: as §1

Human c-Met-Flis-Fc ECD [8] = target: T2, Human c-Met-Flis-Fc ECD; assay: ELISA, coated ECD-Fc, antibody 0.060 ng/mL
Experimental: as §1

Human c-Met-Flis-Fc ECD [9] = target: T2, Human c-Met-Flis-Fc ECD; assay: ELISA, coated ECD-Fc, antibody 0.010 ng/mL
Experimental: as §1

Human c-Met-Flis-Fc ECD [10] = target: T2, Human c-Met-Flis-Fc ECD; assay: ELISA, coated ECD-Fc, antibody 100000.000 ng/mL
Experimental: as §1

Human c-Met-Flis-Fc ECD [11] = target: T2, Human c-Met-Flis-Fc ECD; assay: ELISA, coated ECD-Fc, antibody 77.160 ng/mL
Experimental: as §1

Human c-Met-Flis-Fc ECD [12] = target: T2, Human c-Met-Flis-Fc ECD; assay: ELISA, coated ECD-Fc, antibody 16666.667 ng/mL
Experimental: as §1

Human c-Met-Flis-Fc ECD [13] = target: T2, Human c-Met-Flis-Fc ECD; assay: SPR Biacore, antibody captured, ECD-Fc analyte, 1:1 model
Experimental: (§2) A Biacore® 2000 instrument is used to measure the binding kinetics of c-Met antibodies to human, cynomolgus monkey, and rat c-Met ECDs. Measurements are performed at 25° C. Samples are dissolved in HBS-EP buffer (150 mM sodium chloride, 3 mM EDTA, 0.005% (w/v) surfactant P-20, and 10 mM N-2-hydroxyethylpiperazine-N′-2-ethanesulfonic acid (HEPES) at pH 7.4; #BR-1001-88).
(§3) Binding is evaluated using multiple cycles. Each cycle is performed at a flow rate of 50 μL/min., and consists of the following steps: injection of about 10 μL of a c-Met antibody at 10 μg/mL aiming at a capture of 40-100 RUs, injection of 250 μL of human, cynomolgus, or rat c-Met-Flis-Fc ECD (starting at 100 nM and using two-fold serial dilutions for each cycle) followed by 20 min. for dissociation, and regeneration using about 30 μL of 10 mM glycine hydrochloride, pH 1.5. Association and dissociation rates for each cycle are evaluated using a “1:1 (Langmuir) binding” model in the BIAevaluation software, version 4.1.

Rat c-Met-Flis-Fc ECD = target: T3, Rat c-Met-Flis-Fc ECD (rat); assay: as above
T3 construct: also called Rat cMet-ECD-Fc-Flis; rat c-Met ECD
Experimental: as §2, §3

[14] = target: T4, Cynomolgus Monkey c-Met-Flis-Fc ECD (cynomolgus monkey); assay: as above
T4 construct: also called Cynomolgus Monkey cMet-ECD-Fc-Flis; cynomolgus monkey c-Met ECD
Experimental: as §2, §3

Human c-Met-Flis-Fc ECD [15] = target: T2, Human c-Met-Flis-Fc ECD; assay: ELISA, coated ECD-Fc, antibody 2.143 ng/mL
Experimental: as §1

Human c-Met-Flis-Fc ECD [16] = target: T2, Human c-Met-Flis-Fc ECD; assay: ELISA, coated ECD-Fc, antibody 0.000 ng/mL
Experimental: as §1

T1 sequence (P08581 25-1390): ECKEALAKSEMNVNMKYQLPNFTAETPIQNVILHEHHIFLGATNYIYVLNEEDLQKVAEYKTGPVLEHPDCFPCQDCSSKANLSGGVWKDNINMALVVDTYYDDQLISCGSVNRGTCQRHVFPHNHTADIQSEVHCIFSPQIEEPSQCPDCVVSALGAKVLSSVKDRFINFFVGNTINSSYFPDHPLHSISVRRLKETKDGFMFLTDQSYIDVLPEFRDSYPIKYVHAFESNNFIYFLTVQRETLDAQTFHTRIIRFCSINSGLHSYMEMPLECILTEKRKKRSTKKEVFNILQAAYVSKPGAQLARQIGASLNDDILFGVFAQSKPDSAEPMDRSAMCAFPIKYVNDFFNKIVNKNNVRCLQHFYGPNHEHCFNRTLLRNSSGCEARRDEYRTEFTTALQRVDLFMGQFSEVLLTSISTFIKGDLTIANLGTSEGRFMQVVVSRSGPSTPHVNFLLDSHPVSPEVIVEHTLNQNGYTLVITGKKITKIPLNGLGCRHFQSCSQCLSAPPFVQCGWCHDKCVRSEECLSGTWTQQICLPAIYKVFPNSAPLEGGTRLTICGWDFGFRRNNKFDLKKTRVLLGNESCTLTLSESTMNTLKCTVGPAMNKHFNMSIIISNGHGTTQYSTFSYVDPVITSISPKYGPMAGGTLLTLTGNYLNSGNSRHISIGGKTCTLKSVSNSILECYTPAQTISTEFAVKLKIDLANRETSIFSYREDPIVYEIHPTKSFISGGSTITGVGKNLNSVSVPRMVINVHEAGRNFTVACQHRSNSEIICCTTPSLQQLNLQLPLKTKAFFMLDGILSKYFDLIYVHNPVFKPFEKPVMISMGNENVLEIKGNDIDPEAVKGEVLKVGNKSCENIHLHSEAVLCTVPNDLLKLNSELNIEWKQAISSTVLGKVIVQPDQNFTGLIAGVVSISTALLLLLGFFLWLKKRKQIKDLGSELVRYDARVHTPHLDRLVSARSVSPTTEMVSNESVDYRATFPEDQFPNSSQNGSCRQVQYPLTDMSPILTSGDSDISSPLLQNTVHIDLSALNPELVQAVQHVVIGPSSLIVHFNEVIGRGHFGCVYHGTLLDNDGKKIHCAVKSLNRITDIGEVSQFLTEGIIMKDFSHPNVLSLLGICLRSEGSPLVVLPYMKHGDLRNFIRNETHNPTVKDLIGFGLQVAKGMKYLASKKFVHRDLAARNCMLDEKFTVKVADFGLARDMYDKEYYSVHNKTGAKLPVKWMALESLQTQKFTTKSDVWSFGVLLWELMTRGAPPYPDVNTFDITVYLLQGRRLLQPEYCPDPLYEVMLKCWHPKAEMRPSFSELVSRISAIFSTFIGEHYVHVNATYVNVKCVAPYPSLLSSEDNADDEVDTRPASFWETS
T2 sequence (chain, as listed by the source limits assumed): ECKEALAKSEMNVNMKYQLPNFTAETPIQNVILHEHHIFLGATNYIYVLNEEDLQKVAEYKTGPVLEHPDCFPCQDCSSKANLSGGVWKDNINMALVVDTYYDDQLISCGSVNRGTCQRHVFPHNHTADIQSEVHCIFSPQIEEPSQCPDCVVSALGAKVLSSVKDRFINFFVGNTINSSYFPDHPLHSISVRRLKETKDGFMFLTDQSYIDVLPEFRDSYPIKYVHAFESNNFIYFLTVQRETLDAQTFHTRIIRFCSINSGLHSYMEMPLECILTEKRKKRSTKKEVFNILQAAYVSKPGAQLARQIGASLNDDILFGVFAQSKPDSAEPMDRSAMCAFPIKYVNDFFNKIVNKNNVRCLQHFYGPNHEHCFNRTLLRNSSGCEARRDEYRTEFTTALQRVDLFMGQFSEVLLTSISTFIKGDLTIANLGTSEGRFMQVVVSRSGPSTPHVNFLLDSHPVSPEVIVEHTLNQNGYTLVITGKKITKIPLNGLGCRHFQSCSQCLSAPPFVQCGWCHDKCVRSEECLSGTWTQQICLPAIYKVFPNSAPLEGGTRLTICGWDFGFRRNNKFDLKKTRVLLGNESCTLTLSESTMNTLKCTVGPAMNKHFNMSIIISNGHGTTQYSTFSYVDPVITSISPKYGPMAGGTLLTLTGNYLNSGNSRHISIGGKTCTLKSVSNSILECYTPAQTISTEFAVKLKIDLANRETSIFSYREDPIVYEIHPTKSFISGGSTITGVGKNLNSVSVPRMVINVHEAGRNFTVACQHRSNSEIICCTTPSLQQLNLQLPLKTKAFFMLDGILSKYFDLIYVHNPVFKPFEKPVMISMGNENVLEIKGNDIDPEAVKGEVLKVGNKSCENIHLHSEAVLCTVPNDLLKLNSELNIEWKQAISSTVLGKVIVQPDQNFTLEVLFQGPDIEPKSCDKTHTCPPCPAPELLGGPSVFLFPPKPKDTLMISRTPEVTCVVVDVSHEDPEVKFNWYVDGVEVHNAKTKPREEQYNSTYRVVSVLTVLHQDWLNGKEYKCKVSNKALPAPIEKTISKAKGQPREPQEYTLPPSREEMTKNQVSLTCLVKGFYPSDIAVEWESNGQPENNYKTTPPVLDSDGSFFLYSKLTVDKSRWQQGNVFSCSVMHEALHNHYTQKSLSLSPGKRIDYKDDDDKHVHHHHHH
T3 sequence (chain, as listed by the source limits assumed): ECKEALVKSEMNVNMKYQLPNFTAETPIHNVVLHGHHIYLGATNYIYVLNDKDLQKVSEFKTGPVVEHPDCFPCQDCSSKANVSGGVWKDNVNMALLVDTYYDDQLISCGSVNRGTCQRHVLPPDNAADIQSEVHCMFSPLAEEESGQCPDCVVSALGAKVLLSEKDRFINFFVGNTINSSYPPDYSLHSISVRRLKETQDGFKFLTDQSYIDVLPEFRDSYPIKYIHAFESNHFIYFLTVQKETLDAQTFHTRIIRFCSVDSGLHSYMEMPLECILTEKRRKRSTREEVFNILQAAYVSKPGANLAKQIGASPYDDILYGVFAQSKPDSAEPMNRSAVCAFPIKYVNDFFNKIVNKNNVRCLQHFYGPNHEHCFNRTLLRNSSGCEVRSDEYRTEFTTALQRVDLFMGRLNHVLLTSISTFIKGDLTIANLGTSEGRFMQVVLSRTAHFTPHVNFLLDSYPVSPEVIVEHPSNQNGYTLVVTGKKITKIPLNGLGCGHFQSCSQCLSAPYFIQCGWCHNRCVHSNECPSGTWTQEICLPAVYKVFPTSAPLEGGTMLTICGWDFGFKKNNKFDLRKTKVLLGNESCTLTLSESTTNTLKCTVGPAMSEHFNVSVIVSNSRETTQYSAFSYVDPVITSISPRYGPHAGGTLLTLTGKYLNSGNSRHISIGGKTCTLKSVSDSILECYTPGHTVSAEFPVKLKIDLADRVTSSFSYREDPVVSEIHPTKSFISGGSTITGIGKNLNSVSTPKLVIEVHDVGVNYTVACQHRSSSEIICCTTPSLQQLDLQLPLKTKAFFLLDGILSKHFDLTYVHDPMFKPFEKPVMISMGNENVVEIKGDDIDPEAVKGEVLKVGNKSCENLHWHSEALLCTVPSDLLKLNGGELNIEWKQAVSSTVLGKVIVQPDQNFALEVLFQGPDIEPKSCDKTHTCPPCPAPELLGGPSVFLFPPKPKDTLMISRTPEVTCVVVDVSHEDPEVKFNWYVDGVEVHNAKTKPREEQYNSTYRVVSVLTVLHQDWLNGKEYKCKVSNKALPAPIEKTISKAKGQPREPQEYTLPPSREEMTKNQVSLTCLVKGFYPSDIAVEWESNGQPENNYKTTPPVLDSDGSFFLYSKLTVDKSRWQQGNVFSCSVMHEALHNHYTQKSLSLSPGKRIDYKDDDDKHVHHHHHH
T4 sequence (chain, as listed by the source limits assumed): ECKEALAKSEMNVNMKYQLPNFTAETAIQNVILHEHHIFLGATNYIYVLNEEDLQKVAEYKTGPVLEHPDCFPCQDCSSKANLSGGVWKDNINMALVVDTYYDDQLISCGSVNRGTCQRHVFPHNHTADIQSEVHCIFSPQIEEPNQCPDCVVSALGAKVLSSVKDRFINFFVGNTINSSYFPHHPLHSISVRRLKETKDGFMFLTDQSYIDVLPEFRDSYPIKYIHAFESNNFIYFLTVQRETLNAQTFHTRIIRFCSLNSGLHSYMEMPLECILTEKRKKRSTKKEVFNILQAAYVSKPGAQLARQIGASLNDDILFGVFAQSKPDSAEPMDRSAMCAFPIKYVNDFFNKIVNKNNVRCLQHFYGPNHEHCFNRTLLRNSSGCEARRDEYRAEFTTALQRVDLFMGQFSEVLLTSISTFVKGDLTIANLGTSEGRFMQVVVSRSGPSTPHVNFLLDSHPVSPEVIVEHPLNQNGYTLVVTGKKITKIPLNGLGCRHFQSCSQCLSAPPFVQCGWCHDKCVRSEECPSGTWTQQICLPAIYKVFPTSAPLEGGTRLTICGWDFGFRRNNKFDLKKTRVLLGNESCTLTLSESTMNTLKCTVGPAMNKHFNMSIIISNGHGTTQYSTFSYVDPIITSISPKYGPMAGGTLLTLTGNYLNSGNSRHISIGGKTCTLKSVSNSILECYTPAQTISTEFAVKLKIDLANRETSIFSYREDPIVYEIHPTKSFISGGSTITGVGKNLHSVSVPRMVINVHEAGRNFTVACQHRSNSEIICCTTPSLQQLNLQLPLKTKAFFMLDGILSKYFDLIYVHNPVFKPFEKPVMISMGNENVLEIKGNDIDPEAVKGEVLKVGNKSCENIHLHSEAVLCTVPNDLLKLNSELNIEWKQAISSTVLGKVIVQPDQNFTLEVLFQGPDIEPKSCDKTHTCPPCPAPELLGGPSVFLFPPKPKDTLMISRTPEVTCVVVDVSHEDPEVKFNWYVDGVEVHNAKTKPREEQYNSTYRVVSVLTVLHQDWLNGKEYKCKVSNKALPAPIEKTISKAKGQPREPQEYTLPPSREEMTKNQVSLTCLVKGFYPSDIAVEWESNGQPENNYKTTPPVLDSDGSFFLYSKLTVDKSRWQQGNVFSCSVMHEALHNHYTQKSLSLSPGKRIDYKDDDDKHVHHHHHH

Binder	3H-Thymidine Incorporation in Primary Human Hepatocytes in the Absence of HGF (average), dose 0.0032 ug/mL (human c-Met [1])	3H-Thymidine Incorporation in Primary Human Hepatocytes in the Absence of HGF (average), dose 0.016 ug/mL (human c-Met [1])	3H-Thymidine Incorporation in Primary Human Hepatocytes in the Absence of HGF (average), dose 0.08 ug/mL (human c-Met [1])	3H-Thymidine Incorporation in Primary Human Hepatocytes in the Absence of HGF (average), dose 0.4 ug/mL (human c-Met [1])	3H-Thymidine Incorporation in Primary Human Hepatocytes in the Absence of HGF (average), dose 2 ug/mL (human c-Met [1])	3H-Thymidine Incorporation in Primary Human Hepatocytes in the Absence of HGF (average), dose 10 ug/mL (human c-Met [1])	3H-Thymidine Incorporation in Caki-1 Cells in the Absence of HGF (AVG CPM), antibody dose 0.1 ng/mL (human c-Met [2]) [CPM]	3H-Thymidine Incorporation in Caki-1 Cells in the Absence of HGF (AVG CPM), antibody dose 0.4 ng/mL (human c-Met [2]) [CPM]	3H-Thymidine Incorporation in Caki-1 Cells in the Absence of HGF (AVG CPM), antibody dose 2.6 ng/mL (human c-Met [2]) [CPM]	3H-Thymidine Incorporation in Caki-1 Cells in the Absence of HGF (AVG CPM), antibody dose 15.4 ng/mL (human c-Met [2]) [CPM]	3H-Thymidine Incorporation in Caki-1 Cells in the Absence of HGF (AVG CPM), antibody dose 92.6 ng/mL (human c-Met [2]) [CPM]	3H-Thymidine Incorporation in Caki-1 Cells in the Absence of HGF (AVG CPM), antibody dose 555.6 ng/mL (human c-Met [2]) [CPM]	3H-Thymidine Incorporation in Caki-1 Cells in the Absence of HGF (AVG CPM), antibody dose 3333.3 ng/mL (human c-Met [2]) [CPM]	3H-Thymidine Incorporation in Caki-1 Cells in the Absence of HGF (AVG CPM), antibody dose 20000.0 ng/mL (human c-Met [2]) [CPM]	Average A450 nm (Human c-Met-Flis-Fc ECD [3]) [A450 nm]	Average A450 nm (Human c-Met-Flis-Fc ECD [4]) [A450 nm]	Average A450 nm (Human c-Met-Flis-Fc ECD [5]) [A450 nm]	Average A450 nm (Human c-Met-Flis-Fc ECD [6]) [A450 nm]	Average A450 nm (Human c-Met-Flis-Fc ECD [7]) [A450 nm]	Average A450 nm (Human c-Met-Flis-Fc ECD [8]) [A450 nm]	further results
B1	693	892	1280	1750	1870	2150	17700	13600	13300	13800	14700	14500	15800	16100	–	–	–	–	–	–	–
B2	726	920	1460	1910	2570	3160	15900	14600	14900	14600	15300	16600	17900	18600	–	–	–	–	–	–	–
B3	–	–	–	–	–	–	–	–	–	–	–	–	–	–	4	4	1.44	4	0.271	0.46	Average A450 nm (Human c-Met-Flis-Fc ECD [9]): 0.29 A450 nm; Average A450 nm (Human c-Met-Flis-Fc ECD [10]): 3.92 A450 nm; Average A450 nm (Human c-Met-Flis-Fc ECD [11]): 4 A450 nm; Average A450 nm (Human c-Met-Flis-Fc ECD [12]): 4 A450 nm; Kd (Human c-Met-Flis-Fc ECD [13]): 1.4 nM; koff (Human c-Met-Flis-Fc ECD [13]): 9e-05 s⁻¹; kon (Human c-Met-Flis-Fc ECD [13]): 64000 M⁻¹ s⁻¹; Kd (Rat c-Met-Flis-Fc ECD): 2.7 nM; koff (Rat c-Met-Flis-Fc ECD): 0.00034 s⁻¹; kon (Rat c-Met-Flis-Fc ECD): 130000 M⁻¹ s⁻¹; Kd [14]: 6.5 nM; koff [14]: 0.00032 s⁻¹; kon [14]: 50000 M⁻¹ s⁻¹; Average A450 nm (Human c-Met-Flis-Fc ECD [15]): 2.53 A450 nm; Average A450 nm (Human c-Met-Flis-Fc ECD [16]): 0.284 A450 nm
B4	–	–	–	–	–	–	–	–	–	–	–	–	–	–	4	4	1.31	3.93	0.299	0.445	Average A450 nm (Human c-Met-Flis-Fc ECD [9]): 0.304 A450 nm; Average A450 nm (Human c-Met-Flis-Fc ECD [10]): 4 A450 nm; Average A450 nm (Human c-Met-Flis-Fc ECD [11]): 4 A450 nm; Average A450 nm (Human c-Met-Flis-Fc ECD [12]): 4 A450 nm; Kd (Human c-Met-Flis-Fc ECD [13]): 0.5 nM; koff (Human c-Met-Flis-Fc ECD [13]): 5e-05 s⁻¹; kon (Human c-Met-Flis-Fc ECD [13]): 100000 M⁻¹ s⁻¹; Kd (Rat c-Met-Flis-Fc ECD): 0.89 nM; koff (Rat c-Met-Flis-Fc ECD): 0.00019 s⁻¹; kon (Rat c-Met-Flis-Fc ECD): 210000 M⁻¹ s⁻¹; Kd [14]: 2.9 nM; koff [14]: 0.000223 s⁻¹; kon [14]: 78000 M⁻¹ s⁻¹; Average A450 nm (Human c-Met-Flis-Fc ECD [15]): 2.42 A450 nm; Average A450 nm (Human c-Met-Flis-Fc ECD [16]): 0.297 A450 nm
